According to the supplement of paper PMC10126150:
± gives the standard deviation of the averaged measurements.

Test system: ATP
Experiment: switch fluorescence ratio, 500 uM ATP over buffer (Cy3 cluster intensity, sum of 5 cycles each) (fold (ratio)); higher = stronger signal-on switching upon ATP binding; sequences stand for … in TCGTCGGCAGCGTCAGATGTGTATAAGAGACAGTTTTTTTTTTTTTTTTTTTTTTTTT…TC
Conditions: aptamer strand: ATP DNA aptamer (quencher-CACCTGGGGGAGTATTGCGGAGGAAGG + anchor), 100 nM annealed; ATP concentration: 500 uM
How it was run: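 Clusters carrying Cy3-labelled switching strands on a modified Illumina MiSeq flow-cell were annealed to 100 nM quencher-labelled ATP aptamer and imaged in selection buffer. They were imaged again after 15 min with 500 uM ATP at 22 °C, over five buffer/ATP cycles with NaOH stripping and re-annealing in between. For each cluster, the fluorescence ratio is the summed Cy3 intensity of the target cycles divided by that of the buffer cycles, averaged per switch-domain sequence. Clusters outside 100-1000 RFU were left out.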
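Also: ATP exposure 15 min at 22 °C before imaging.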

Sequence | switch fluorescence ratio
CATAAATCAA | 0.9925 ± 0.006
CATAACATAG | 0.995 ± 0.012
CATAACGGGG | 0.957 ± 0.04
CATAAGGGTG | 1.09 ± 0.038
CATAAGTGGG | 0.973 ± 0.03
CATAATCAGG | 1.04 ± 0.03
CATAATCTAG | 1.03 ± 0.013
CATACAGATC | 1.06 ± 0.031
CATACATACG | 1.42 ± 0.056
CATACGGTTT | 1.05 ± 0.024
CATACGTCTG | 1.04 ± 0.017
CATACTCAGA | 1 ± 0.045
CATAGAGGGT | 0.951 ± 0.03
CATAGAGTGT | 1 ± 0.021
CATAGATTTT | 0.98896 ± 0.00042
CATAGCTTTT | 1.01 ± 0.012
CATAGGAGAC | 1 ± 0.017
CATAGGGAGA | 1.006 ± 0.0042
CATAGGGGAG | 1.042 ± 0.01
CATAGGTCTA | 0.996 ± 0.019
CATAGTGATG | 0.986 ± 0.026
CATATATCAT | 1.008 ± 0.0095
CATATATTT | 0.975 ± 0.015
CATATCATGG | 0.988 ± 0.037
CATATGAGGG | 0.991 ± 0.07

Sequence | switch fluorescence ratio
CATATGCGTA | 0.9857 ± 0.0015
CATATGTGCG | 0.992 ± 0.023
CATATTCCTA | 0.999 ± 0.035
CATATTCGGC | 0.988 ± 0.061
CATATTGGAT | 1.02 ± 0.036
CATATTTA | 0.992 ± 0.02
CATATTTCGC | 1.03 ± 0.029
CATATTTGAC | 1.04 ± 0.074
CATCACATGT | 1 ± 0.018
CATCATGTGT | 0.9714 ± 0.0043
CATCCGGCGG | 1.17 ± 0.038
CATCGAGATG | 1.01 ± 0.014
CATCGAGCAA | 3.77 ± 3.5
CATCGCTGTG | 0.998 ± 0.039
CATCGGGGTC | 1.07 ± 0.021
CATCGTGTGT | 0.972 ± 0.011
CATCTACTGG | 1.01 ± 0.018
CATCTAGGGG | 0.999 ± 0.061
CATGAAACAT | 1.06 ± 0.048
CATGAATGGT | 0.962 ± 0.022
CATGACATTT | 1.06 ± 0.028
CATGACGAAT | 1.03 ± 0.026
CATGAGAAGG | 1.0186 ± 0.001
CATGAGGTTC | 0.974 ± 0.03
CATGAGTAGG | 0.979 ± 0.016

Sequence | switch fluorescence ratio
CATGATAGGG | 1.01 ± 0.031
CATGATAGGT | 0.975 ± 0.057
CATGATCCGT | 1.008 ± 0.0093
CATGATCTCT | 0.987 ± 0.071
CATGATGTGT | 1 ± 0.042
CATGATGTTC | 1.02 ± 0.021
CATGATTAAT | 0.962 ± 0.033
CATGATTAGT | 0.951 ± 0.041
CATGCACTAT | 1.08 ± 0.021
CATGCCAGTG | 1.049 ± 0.0013
CATGCGGGGG | 1.01 ± 0.013
CATGCGTAAA | 1.238 ± 0.0069
CATGCTTTCC | 1.17 ± 0.26
CATGCTTTCT | 0.9836 ± 0.0079
CATGGCAACC | 1.158 ± 0.0094
CATGGGAGAC | 0.986 ± 0.022
CATGGGCAG | 0.992 ± 0.034
CATGGGCTAG | 0.997 ± 0.057
CATGGGGGAT | 1.01 ± 0.035
CATGGGGGGT | 0.994 ± 0.014
CATGGTCATT | 1 ± 0.019
CATGGTCTCA | 1.017 ± 0.0017
CATGGTGTGG | 1.01 ± 0.031
CATGGTTCGT | 0.975 ± 0.025
CATGGTTGGT | 0.969 ± 0.025

Sequence | switch fluorescence ratio
CATGTATTAT | 0.985 ± 0.034
CATGTCACGG | 1.06 ± 0.039
CATGTGCGTG | 1 ± 0.022
CATGTGGGGT | 0.992 ± 0.034
CATGTGTTGT | 0.987 ± 0.014
CATGTTAGGT | 1.01 ± 0.025
CATGTTAGTA | 1.02 ± 0.021
CATGTTCGGG | 0.971 ± 0.012
CATGTTGATG | 1.0056 ± 0.00049
CATGTTGGAG | 0.9924 ± 0.0053
CATGTTGGGT | 1.008 ± 0.007
CATGTTTAGG | 0.986 ± 0.017
CATGTTTGGT | 0.987 ± 0.013
CATTAAAGTA | 1.1 ± 0.021
CATTAACGAG | 1.013 ± 0.0062
CATTAACGGG | 1.02 ± 0.013
CATTAAGGGC | 0.962 ± 0.04
CATTAAGTGT | 0.9713 ± 0.0034
CATTAGCTGG | 1.03 ± 0.002
CATTAGGATA | 1.0153 ± 0.00044
CATTAGGATG | 0.9941 ± 0.0021
CATTAGGGGT | 0.978 ± 0.012
CATTATATGT | 1.01 ± 0.046
CATTATTAAA | 0.976 ± 0.025
CATTATTGTT | 0.999 ± 0.033

Sequence | switch fluorescence ratio
CATTCGGGTG | 1.11 ± 0.027
CATTCTTCGC | 1.15 ± 0.029
CATTGACCGC | 1.09 ± 0.014
CATTGACTTT | 1.02 ± 0.016
CATTGAGCGG | 1 ± 0.018
CATTGAGGGT | 0.968 ± 0.052
CATTGATTTT | 1.013 ± 0.0022
CATTGCGATC | 2.08 ± 0.3
CATTGGGCGA | 0.982 ± 0.022
CATTGGGGGT | 1.04 ± 0.021
CATTGGGTTT | 0.975 ± 0.052
CATTGGTGAG | 0.992 ± 0.032
CATTGGTGGT | 0.989 ± 0.0039
CATTGTAAGA | 0.962 ± 0.043
CATTGTATCG | 1.01 ± 0.011
CATTTACCAT | 1.03 ± 0.014
CATTTAGCTC | 1.07 ± 0.015
CATTTATAAG | 0.977 ± 0.013
CATTTATATT | 0.986 ± 0.032
CATTTCAGTG | 0.988 ± 0.025
CATTTGATCC | 0.978 ± 0.0026
CATTTGGGTA | 1.01 ± 0.014
CATTTGTGGG | 0.993 ± 0.017
CATTTGTGTT | 1.02 ± 0.046
CATTTTATAT | 1.02 ± 0.012

Sequence | switch fluorescence ratio
CATTTTGAGC | 0.996 ± 0.014
CATTTTGCGT | 0.972 ± 0.035
CATTTTGGGC | 0.992 ± 0.041
CATTTTTGGA | 1.003 ± 0.0076
CATTTTTTTA | 0.96084 ± 0.00082
CCAAGCCTGT | 1.007 ± 0.0098
CCAAGCGTGC | 1.76 ± 0.64
CCAAGCTGAA | 1.22 ± 0.035
CCAAGGTGGA | 1.1 ± 0.12
CCAAGGTGGG | 1.1 ± 0.016
CCAATAAGGG | 0.994 ± 0.048
CCAATAGGCA | 1.046 ± 0.0078
CCAATGGCAG | 1.155 ± 0.0045
CCAATGTTTT | 0.98 ± 0.016
CCACACCATT | 1.058 ± 0.004
CCACAGTGTT | 1.61 ± 0.1
CCACCATTTT | 1.13 ± 0.12
CCACCGGGGA | 1.85 ± 0.49
CCACCGGTAT | 1.69 ± 0.048
CCACCTATCA | 1.07 ± 0.031
CCACCTGGCG | 1.29 ± 0.017
CCACGATTAA | 1.003 ± 0.008
CCACGCTCGC | 2.33 ± 0.21
CCACGGGGTT | 1.06 ± 0.072
CCACGTGAGG | 1.03 ± 0.012

Sequence | switch fluorescence ratio
CCACTAGGGC | 1.09 ± 0.017
CCACTGGGTG | 4.394 ± 0.031
CCAGAACGAA | 1.037 ± 0.0099
CCAGAATTCG | 0.98 ± 0.024
CCAGACGCGG | 1.14 ± 0.051
CCAGAGGCTA | 1.1475 ± 0.00019
CCAGCGGTTG | 1.025 ± 0.004
CCAGCTGCGG | 1.01 ± 0.022
CCAGCTGGGT | 1.0117 ± 0.0005
CCAGCTGGT | 1.02 ± 0.042
CCAGCTTTTA | 1.09 ± 0.052
CCAGGCAAGG | 1.18 ± 0.019
CCAGGCGATG | 1.05 ± 0.005
CCAGGCGCTA | 1.611 ± 0.014
CCAGGCGTAT | 1.032 ± 0.0023
CCAGGGCGGG | 0.99 ± 0.043
CCAGGGGAAG | 0.996 ± 0.017
CCAGGGGGAT | 1.97 ± 1.3
CCAGGGTATC | 1.064 ± 0.0063
CCAGGGTTGT | 1.11 ± 0.037
CCAGGTAACA | 1.03 ± 0.012
CCAGGTATTT | 1.1 ± 0.016
CCAGGTCGAC | 1.02 ± 0.063
CCAGGTGTTG | 3.12 ± 0.44
CCAGTAGGAG | 1.07 ± 0.051

Sequence | switch fluorescence ratio
CCAGTAGTCT | 1.05 ± 0.019
CCAGTTAAGA | 0.989 ± 0.024
CCAGTTCGGA | 0.981 ± 0.059
CCAGTTGGGA | 1 ± 0.032
CCATACGTAG | 1.035 ± 0.0066
CCATCAAATA | 1.01 ± 0.015
CCATGAACAT | 1 ± 0.028
CCATGCCACA | 1.05 ± 0.029
CCATGGAGGT | 1.01 ± 0.034
CCATGGGAAA | 0.961 ± 0.03
CCATGGGGGG | 1.11 ± 0.18
CCATGTTTGG | 0.996 ± 0.028
CCATTAATTT | 1.11 ± 0.17
CCATTACGTT | 1.04 ± 0.05
CCATTATAT | 0.982 ± 0.043
CCATTGAGAC | 1.04 ± 0.029
CCATTTGCGG | 1.001 ± 0.0088
CCATTTTGTT | 0.984 ± 0.015
CCATTTTTTA | 0.9825 ± 0.0097
CCCATGCTTA | 1.046 ± 0.003
CCCATGGACT | 1.034 ± 0.0088
CCCCAAGACG | 0.997 ± 0.011
CCCCATTTTA | 1 ± 0.018
CCCCCCGGGG | 1.61 ± 0.32
CCCCTGACAA | 1.79 ± 0.059
